Measured values reported in the supplement of paper PMC7877785.
± gives the uncertainty stated by the source.

Experiment: self-splicing fitness, log relative to wild type (ln ratio); higher = more splicing; Tetrahymena group I intron in knt gene, E. coli kanamycin selection, DiMSum; sequences stand for … in CUCUCU…GGAGGGAAAAGUUAUCAGGCAUGCACCUGGUAGCUAGUCUUUAAACCAAUAGAUUGCAUCGGUUUAAAAGGCAAGACCGUCAAAUUGCGGGAAAGGGGUCAACAGCCGUUCAGUACCAAGUCUCAGGGGAAACUUUGAGAUGGCCUUGCAAAGGGUAUGGUAAUAAGCUGACGGACAUGGUCCUAACCACGCAGCCAAGUCCUAAGUCAACAGAUCUUCUGUUGAUAUGGAUGCAGUUCACAGACUAAAUGUCGGUCGGGGAAGAUGUAUUCUUCUCAUAAGAUAUAGUCGGACCUCUCCUUAAUGGGAGCUAGCGGAUGAAGUGAUGCAACACUGGAGCCGCUGGGAACUAAUUUGUAUGCGAAAGUAUAUUGAUUAGUUUUGGAGUACUCGUGGUCG
Method in brief: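 Six replicate transformations of E. coli BL21(DE3) with a pET-22b(+) library were grown overnight at 37°C or 30°C. The library randomised all eight P1ex-region intron nucleotides, the intron lying in the knt kanamycin-resistance gene, and plates were LB agar with or without 25 μg/mL kanamycin plus 100 μg/mL carbenicillin, 50 μM IPTG and 0.2% rhamnose. Pooled colonies were amplicon-sequenced on an Illumina HiSeq 2500, and fitness is the DiMSum error-weighted combination of wild-type-normalised replicate fold changes, kanamycin versus none.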

Row | Sequence | self-splicing fitness (ln) (30 °C) | self-splicing fitness (ln) (37 °C)
1 | AAACAGCAAUAUUACGUGUU | -4.29 ± 0.15 | -2.24 ± 0.11
2 | ACUGAGCAAUAUUACGAGUG | -3.1 ± 0.12 | -2.76 ± 0.14
3 | GAUAAGCAAUAUUACGCGGA | -3.54 ± 0.22 | -0.761 ± 0.12
4 | AGAAAGCAAUAUUACGCUAC | -3.25 ± 0.39 | 
5 | CACGAGCAAUAUUACGGUCG | -1.72 ± 0.14 | -0.457 ± 0.14
6 | UUCGAGCAAUAUUACGCACU |  | -1.76 ± 0.38
7 | UUCAAGCAAUAUUACGGUCG | -0.917 ± 0.1 | -0.62 ± 0.13
8 | CGUCAGCAAUAUUACGCAUG | -1.06 ± 0.07 | 0.0876 ± 0.082
9 | AUAAAGCAAUAUUACGCCGU | 0.151 ± 0.11 | -0.694 ± 0.12
10 | GAGGAGCAAUAUUACGUUAG | -4 ± 0.27 | -1.93 ± 0.27
11 | GGUGAGCAAUAUUACGUAUG | -3.26 ± 0.47 | -0.0178 ± 0.18
12 | CGAGAGCAAUAUUACGGGUC |  | -0.826 ± 0.23
13 | AGAUAGCAAUAUUACGUCGG | -1.52 ± 0.14 | -1.26 ± 0.16
14 | UACGAGCAAUAUUACGCGAG | -2.49 ± 0.15 | -0.597 ± 0.14
15 | GCGCAGCAAUAUUACGAAUA | -2.09 ± 0.2 | -1.02 ± 0.14
16 | AGUGAGCAAUAUUACGUCGC | -2.66 ± 0.41 | 
17 | GAUAAGCAAUAUUACGCUCG | -0.655 ± 0.15 | 0.0364 ± 0.17
18 | ACCGAGCAAUAUUACGAGUA | -3.23 ± 0.27 | -3.5 ± 0.35
19 | CGCUAGCAAUAUUACGUCGG | -1.6 ± 0.075 | -0.631 ± 0.12
20 | GUUAAGCAAUAUUACGUUAU | -1.62 ± 0.12 | -0.968 ± 0.13

Row | Sequence | self-splicing fitness (ln) (30 °C) | self-splicing fitness (ln) (37 °C)
21 | AUCCAGCAAUAUUACGACGC | -1.16 ± 0.12 | -0.49 ± 0.15
22 | AUUUAGCAAUAUUACGUGCC | -0.606 ± 0.15 | 0.118 ± 0.14
23 | CGCCAGCAAUAUUACGAUUU | -2.75 ± 0.19 | -2.62 ± 0.2
24 | UAUUAGCAAUAUUACGCUAC | -2.5 ± 0.41 | -1.15 ± 0.47
25 | GCAAAGCAAUAUUACGCAUC | -1.98 ± 0.16 | -1.4 ± 0.17
26 | CCACAGCAAUAUUACGAUUC | -3.17 ± 0.11 | -2.23 ± 0.14
27 | UGAGAGCAAUAUUACGUACU |  | -1.87 ± 0.25
28 | AAGCAGCAAUAUUACGACGG | -2.19 ± 0.088 | -1.17 ± 0.09
29 | UUGUAGCAAUAUUACGCACG | -1.14 ± 0.11 | -0.742 ± 0.13
30 | AUGUAGCAAUAUUACGGAAC |  | -1.16 ± 0.41
31 | UUUAAGCAAUAUUACGAGUU | -2.48 ± 0.17 | -2.09 ± 0.17
32 | GAUGAGCAAUAUUACGUUUA | -3.13 ± 0.29 | -2.75 ± 0.23
33 | UGCAAGCAAUAUUACGUGAA | -2.26 ± 0.1 | -1.03 ± 0.11
34 | GGGCAGCAAUAUUACGGACA | -1.97 ± 0.38 | -0.246 ± 0.39
35 | UAUAAGCAAUAUUACGGUUC | -3.49 ± 0.37 | -1.05 ± 0.33
36 | UAACAGCAAUAUUACGUCGU | -3.43 ± 0.14 | -2.04 ± 0.12
37 | GGCCAGCAAUAUUACGACAU | -1.21 ± 0.013 | -0.437 ± 0.032
38 | UGCCAGCAAUAUUACGCGGA | -2.24 ± 0.1 | -1.32 ± 0.094
39 | GGAUAGCAAUAUUACGGACA | -1.68 ± 0.16 | -0.273 ± 0.16
40 | UGACAGCAAUAUUACGGUUC | -2.92 ± 0.11 | -1.79 ± 0.085
